Patent US20240035010, “COMPOSITIONS COMPRISING A VARIANT POLYPEPTIDE AND USES THEREOF” (Arbor Biotechnologies, Inc., published 2024)

Target: T1, variant nuclease SEQ ID NO: 53 (P14R, D32R, I61R, E311R, T338G, E736G)
T1 chain: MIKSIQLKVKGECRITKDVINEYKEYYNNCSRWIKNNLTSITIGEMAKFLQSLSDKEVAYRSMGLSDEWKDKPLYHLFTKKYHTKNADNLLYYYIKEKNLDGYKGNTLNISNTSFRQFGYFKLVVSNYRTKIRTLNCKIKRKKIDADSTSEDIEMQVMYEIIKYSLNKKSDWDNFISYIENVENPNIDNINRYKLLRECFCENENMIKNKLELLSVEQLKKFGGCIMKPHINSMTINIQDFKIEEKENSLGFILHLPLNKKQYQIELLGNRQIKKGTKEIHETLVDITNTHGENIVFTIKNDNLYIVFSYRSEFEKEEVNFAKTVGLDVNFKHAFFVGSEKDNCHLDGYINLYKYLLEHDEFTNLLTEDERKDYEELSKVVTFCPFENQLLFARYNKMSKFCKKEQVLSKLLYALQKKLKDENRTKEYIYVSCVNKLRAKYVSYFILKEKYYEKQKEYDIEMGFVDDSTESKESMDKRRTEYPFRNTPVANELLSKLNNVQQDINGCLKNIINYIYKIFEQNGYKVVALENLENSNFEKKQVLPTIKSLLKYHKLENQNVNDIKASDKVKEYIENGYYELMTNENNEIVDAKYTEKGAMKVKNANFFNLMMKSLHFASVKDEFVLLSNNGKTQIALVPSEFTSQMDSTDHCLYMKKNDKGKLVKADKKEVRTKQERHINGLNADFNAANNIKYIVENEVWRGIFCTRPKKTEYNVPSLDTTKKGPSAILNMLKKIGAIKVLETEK
Experiment: cell_activity; % indels; HEK293T; PAM 5'-TTTA-3'
Details: tags: pcDNA3.1 expression

B1: VEGFA crRNA ; VEGFA target (ssRNA ; dsDNA)
RNA: CUUGUUGUAUAUGUCCUUUUAUAGGUAUUAAACAACUCCAGACCACCAAUGGGCAC
DNA 1: TCCAGACCACCAATGGGCAC
DNA 2: GTGCCCATTGGTGGTCTGGA
indel editing activity: 3.04 fold of WT
